The star is where a group is joined. Biotin = O=C1N[C@H]2[C@H](CS[C@H]2CCCCC(=O)*)N1; AEEA = NCCOCCOCC(=O)O
Assays:
hTLT-1 ECD-His = target: T1, hTLT-1 ECD-His (human, UniProt Q86YW5 16-162); assay: SPR Biacore, mAb captured via human Fc mAb, TLT-1 as analyte
T1 construct: Extracellular domain of human TLT-1 with C-terminal His-6 tag; the range 16-168 is computed from these; also called TLT-1-His; His tagged human TLT1
T1 sequence: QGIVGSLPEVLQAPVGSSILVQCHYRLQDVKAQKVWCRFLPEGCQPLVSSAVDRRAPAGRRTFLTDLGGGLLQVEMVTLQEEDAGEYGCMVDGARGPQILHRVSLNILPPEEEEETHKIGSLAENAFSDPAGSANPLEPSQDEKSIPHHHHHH
Protocol: Method: The mAbs of interest were either immobilized directly to a CM5 chip or by capture via a human Fc capture mAb immobilized to a CM5 chip, while TLT-1-His was immobilized by capture via an anti-His mAb CM5 chip for analysis of Fabs.
mAb direct capture: The TLT-1 mAbs were immobilised to a level of approx 500-1000 RU on a CM5 chip (50 μg/ml diluted in Na-acetate, pH 4.0) using the standard procedure recommended by the supplier. Two-fold dilutions of TLT-1 from 200 nM to 0.2 nM were tested for binding to the mAbs. Running and dilution buffer: 10 mM HEPES, 150 mM, 0.005% p20, pH 7.4. Regeneration was obtained by 10 mM Glycine, pH 1.7. mAb capture via human Fc mAb: Human Fc mAb was immobilised to approx 10.000 RU. The mAb of interest was added (approx 100 nM). Two-fold dilutions of TLT-1 from 200 nM to 0.2 nM were tested. Running and dilution buffer: 10 mM HEPES, 150 mM, 0.005% p20, pH 7.4. Regeneration was obtained in 3 M MgCl₂.

[1] = target: T2, biotinylated 20 mer peptide 16 from stalk region of TLT-1 (N-terminal bio-Oeg (biotin, 8-amino-3,6-dioxaoctanoic acid spacer)); assay: peptide-walking ELISA on streptavidin plate, triple determination
T2 construct: also called B 4
T2 peptide: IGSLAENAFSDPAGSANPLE
Protocol: (§1) The peptide walking ELISA defined the minimal binding region of the peptide. This was established by coating biotinylated peptides with one residue frameshift in the stalk region of TLT-1 in streptavidin plates followed by binding of the antibody of interest (mAb0061). A secondary antibody was added for detection and binding was measured at 450 nm. Positive control: binding to biotinylated TLT-1.

[2] = target: T3, biotinylated 20 mer peptide 10 from stalk region of TLT-1 (N-terminal bio-Oeg (biotin, 8-amino-3,6-dioxaoctanoic acid spacer)); assay: as above
T3 construct: also called A10
T3 peptide: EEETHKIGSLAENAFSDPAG
Protocol: as §1

[3] = target: T4, biotinylated 16 mer peptide 39 from the stalk region of hTLT-1 (SMILES …); assay: as above
T4 construct: also called D 3
T4 peptide: {Biotin-AEEA}-ETHKIGSLAENAFSDP-NH2
Protocol: as §1

[4] = target: T5, biotinylated 16 mer peptide 37 from the stalk region of hTLT-1 (SMILES …); assay: as above
T5 peptide: {Biotin-AEEA}-EEETHKIGSLAENAFS-NH2
Protocol: as §1

[5] = target: T6, biotinylated 20 mer peptide 9 from stalk region of TLT-1 (N-terminal bio-Oeg (biotin, 8-amino-3,6-dioxaoctanoic acid spacer)); assay: as above
T6 construct: also called A 9
T6 peptide: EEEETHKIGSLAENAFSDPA
Protocol: as §1

[6] = target: T7, biotinylated 16 mer peptide 42 from the stalk region of hTLT-1 (SMILES …); assay: as above
T7 construct: also called D 6
T7 peptide: {Biotin-AEEA}-KIGSLAENAFSDPAGS-NH2
Protocol: as §1

[7] = target: T8, biotinylated 20 mer peptide 6 from stalk region of TLT-1 (N-terminal bio-Oeg (biotin, 8-amino-3,6-dioxaoctanoic acid spacer)); assay: as above
T8 construct: also called A 6
T8 peptide: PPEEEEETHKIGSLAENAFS
Protocol: as §1

[8] = target: T9, biotinylated 20 mer peptide 5 from stalk region of TLT-1 (N-terminal bio-Oeg (biotin, 8-amino-3,6-dioxaoctanoic acid spacer)); assay: as above
T9 construct: also called A 5
T9 peptide: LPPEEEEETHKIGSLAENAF
Protocol: as §1

[9] = target: T10, biotinylated 20 mer peptide 13 from stalk region of TLT-1 (N-terminal bio-Oeg (biotin, 8-amino-3,6-dioxaoctanoic acid spacer)); assay: as above
T10 construct: also called B 1
T10 peptide: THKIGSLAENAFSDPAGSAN
Protocol: as §1

[10] = target: T11, biotinylated 20 mer peptide 7 from stalk region of TLT-1 (N-terminal bio-Oeg (biotin, 8-amino-3,6-dioxaoctanoic acid spacer)); assay: as above
T11 construct: also called A 7
T11 peptide: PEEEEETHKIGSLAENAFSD
Protocol: as §1

[11] = target: T12, biotinylated 16 mer peptide 38 from the stalk region of hTLT-1 (SMILES …); assay: as above
T12 construct: also called D 2
T12 peptide: {Biotin-AEEA}-EETHKIGSLAENAFSD-NH2
Protocol: as §1

[12] = target: T13, biotinylated 20 mer peptide 8 from stalk region of TLT-1 (N-terminal bio-Oeg (biotin, 8-amino-3,6-dioxaoctanoic acid spacer)); assay: as above
T13 construct: also called A 8
T13 peptide: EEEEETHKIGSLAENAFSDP
Protocol: as §1

[13] = target: T14, biotinylated 20 mer peptide 14 from stalk region of TLT-1 (N-terminal bio-Oeg (biotin, 8-amino-3,6-dioxaoctanoic acid spacer)); assay: as above
T14 construct: also called B 2
T14 peptide: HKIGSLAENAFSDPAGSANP
Protocol: as §1

[14] = target: T15, biotinylated 16 mer peptide 40 from the stalk region of hTLT-1 (SMILES …); assay: as above
T15 construct: also called D 4
T15 peptide: {Biotin-AEEA}-THKIGSLAENAFSDPA-NH2
Protocol: as §1

[15] = target: T16, biotinylated 16 mer peptide 36 from the stalk region of hTLT-1 (SMILES …); assay: as above
T16 construct: also called C12
T16 peptide: {Biotin-AEEA}-EEEETHKIGSLAENAF-NH2
Protocol: as §1

[16] = target: T17, biotinylated 20 mer peptide 15 from stalk region of TLT-1 (N-terminal bio-Oeg (biotin, 8-amino-3,6-dioxaoctanoic acid spacer)); assay: as above
T17 construct: also called B 3
T17 peptide: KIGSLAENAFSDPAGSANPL
Protocol: as §1

[17] = target: T18, biotinylated 16 mer peptide 41 from the stalk region of hTLT-1 (SMILES …); assay: as above
T18 construct: also called D 5
T18 peptide: {Biotin-AEEA}-HKIGSLAENAFSDPAG-NH2
Protocol: as §1

[18] = target: T19, biotinylated 20 mer peptide 12 from stalk region of TLT-1 (N-terminal bio-Oeg (biotin, 8-amino-3,6-dioxaoctanoic acid spacer)); assay: as above
T19 construct: also called A12
T19 peptide: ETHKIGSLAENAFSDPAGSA
Protocol: as §1

[19] = target: T20, biotinylated 20 mer peptide 11 from stalk region of TLT-1 (N-terminal bio-Oeg (biotin, 8-amino-3,6-dioxaoctanoic acid spacer)); assay: as above
T20 construct: also called A11
T20 peptide: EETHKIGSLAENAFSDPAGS
Protocol: as §1

hTLT-1.126-162 = target: T21, hTLT-1.126-162 (human); assay: told in the HX-MS example; method not given
T21 construct: Made by solid phase peptide synthesis; not glycosylated; also called TLT-1 stalk peptide; chain P
T21 peptide: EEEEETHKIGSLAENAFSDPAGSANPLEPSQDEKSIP

B1: mAb0061 (antibody, human IgG4 S228P, kappa, V domains shown)
VH: EVKLLESGGGLVQPGGSLKLSCAASGFDFSRYWMTWVRQAPGKGLEWIGEINPDSSTINYNPSLKDKFIISRDNAKNTLYLQMSEVRSEDTALYYCASGVFTSWGQGTLVTVSA
VL: DVVMTQTPLSLPVSLGDQASISCRSSQSLVHRNGNTYFHWALQKPGQSPKLLIYKVSNRFSGVPDRFSGSGSGTDFTLKISRVEAEDLGVYFCSQSTHVPYTFGGGTKLEIKR
notes: Mouse VH/VL, human IgG4 / kappa; variant of mAb0012 (HC T60N, LC C36A, Kabat); also called antiTLT-1 0061mab; (0012HC.T60N)2
932000 M⁻¹ s⁻¹: kon (hTLT-1 ECD-His)
binds: binding result (hTLT-1.126-162)
> 3: absorbance at 450 nm [1] | absorbance at 450 nm [2] | absorbance at 450 nm [3] | absorbance at 450 nm [4] | absorbance at 450 nm [5] | absorbance at 450 nm [6] | absorbance at 450 nm [7] | absorbance at 450 nm [8] | absorbance at 450 nm [9] | absorbance at 450 nm [10] | absorbance at 450 nm [11] | absorbance at 450 nm [12] | absorbance at 450 nm [13] | absorbance at 450 nm [14] | absorbance at 450 nm [15] | absorbance at 450 nm [16] | absorbance at 450 nm [17] | absorbance at 450 nm [18] | absorbance at 450 nm [19]
3.75 nM: Kd (hTLT-1 ECD-His)
0.0035 s⁻¹: koff (hTLT-1 ECD-His)
